Results taken from PMC10397247.
Blank lines part the entries; values can stand above or below the binder they belong to.

Tests used:
Assay in all cases: two-hybrid library CCNG1;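 further: natural log of median RNA to DNA barcode read ratio; higher means stronger binding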
[1] = target: T1, P8bH1
T1 chain: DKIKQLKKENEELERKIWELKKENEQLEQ

[2] = target: T2, P5bH1
T2 chain: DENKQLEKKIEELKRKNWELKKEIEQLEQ

[3] = target: T3, P6bH1
T3 chain: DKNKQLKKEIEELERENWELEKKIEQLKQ

[4] = target: T4, P3bH1
T4 chain: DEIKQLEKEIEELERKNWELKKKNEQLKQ

[5] = target: T5, P7bH1
T5 chain: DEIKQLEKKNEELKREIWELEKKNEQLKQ

[6] = target: T6, P9bH1
T6 chain: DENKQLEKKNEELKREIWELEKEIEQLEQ

[7] = target: T7, P4bH1
T7 chain: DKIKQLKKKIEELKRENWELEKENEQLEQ

[8] = target: T8, 4H1710-bN
T8 chain: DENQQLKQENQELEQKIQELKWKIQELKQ

[9] = target: T9, 4H3638-bN
T9 chain: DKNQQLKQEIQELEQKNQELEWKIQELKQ

[10] = target: T10, 4H3613-bN
T10 chain: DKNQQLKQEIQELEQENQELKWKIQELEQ

[11] = target: T11, 4H3858-bN
T11 chain: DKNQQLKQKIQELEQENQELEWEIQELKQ

[12] = target: T12, 4H3298-bN
T12 chain: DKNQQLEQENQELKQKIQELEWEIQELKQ

[13] = target: T13, 4H235-bN
T13 chain: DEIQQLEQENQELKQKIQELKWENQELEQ

[14] = target: T14, 4H3497-bN
T14 chain: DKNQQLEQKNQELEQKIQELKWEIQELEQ

[15] = target: T15, 4H3974-bN
T15 chain: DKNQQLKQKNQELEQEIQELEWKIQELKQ

[16] = target: T16, 4H1899-bN
T16 chain: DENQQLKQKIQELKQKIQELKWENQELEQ

[17] = target: T17, 4H1985-bN
T17 chain: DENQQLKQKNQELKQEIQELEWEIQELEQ

[18] = target: T18, 4H591-bN
T18 chain: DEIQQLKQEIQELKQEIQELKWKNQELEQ

[19] = target: T19, 4H906-bN
T19 chain: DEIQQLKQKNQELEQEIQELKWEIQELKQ

[20] = target: T20, 4H619-bN
T20 chain: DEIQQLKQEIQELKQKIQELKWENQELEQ

[21] = target: T21, 4H3926-bA
T21 chain: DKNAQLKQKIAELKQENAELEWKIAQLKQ

[22] = target: T22, 4H1804-bN
T22 chain: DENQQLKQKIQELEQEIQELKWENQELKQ

[23] = target: T23, 4H850-bN
T23 chain: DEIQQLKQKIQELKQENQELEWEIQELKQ

[24] = target: T24, 4H3631-bN
T24 chain: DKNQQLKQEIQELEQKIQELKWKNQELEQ

[25] = target: T25, 4H3628-bN
T25 chain: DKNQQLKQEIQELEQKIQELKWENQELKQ

[26] = target: T26, 4H626-bN
T26 chain: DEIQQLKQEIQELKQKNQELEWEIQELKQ

[27] = target: T27, 4H570-bN
T27 chain: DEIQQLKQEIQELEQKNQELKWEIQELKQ

[28] = target: T28, 4H3462-bN
T28 chain: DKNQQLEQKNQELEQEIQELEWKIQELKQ

[29] = target: T29, 4H3414-bN
T29 chain: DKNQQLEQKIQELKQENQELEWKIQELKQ

[30] = target: T30, 4H584-bN
T30 chain: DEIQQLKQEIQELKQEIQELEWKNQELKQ

[31] = target: T31, 4H3926-bN
T31 chain: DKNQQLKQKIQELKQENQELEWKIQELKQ

[32] = target: T32, 4H3162-bN
T32 chain: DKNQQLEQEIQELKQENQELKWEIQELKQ

[33] = target: T33, 4H3277-bN
T33 chain: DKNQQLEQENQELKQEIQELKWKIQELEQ

[34] = target: T34, 4H3817-bN
T34 chain: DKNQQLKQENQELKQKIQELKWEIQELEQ

[35] = target: T35, 4H3129-bN
T35 chain: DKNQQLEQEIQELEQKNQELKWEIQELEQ

[36] = target: T36, 4H3175-bN
T36 chain: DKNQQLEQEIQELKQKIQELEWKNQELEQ

[37] = target: T37, 4H3172-bN
T37 chain: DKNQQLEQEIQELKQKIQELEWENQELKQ

interaction score [1]: 0.173 | interaction score [2]: 1.1 | interaction score [3]: 0.419 | interaction score [4]: -0.241 | interaction score [5]: -0.271 | interaction score [6]: -0.408 | interaction score [7]: 1.13
Binder: DEIKQLEKEIEELERKNWELKKKNEQLKQ [P3bH1]

interaction score [8]: 0.191 | interaction score [9]: -0.0052 | interaction score [10]: -0.41 | interaction score [11]: -0.718 | interaction score [12]: 0.498 | interaction score [13]: -2.91 | interaction score [14]: 0.701 | interaction score [15]: 0.85 | interaction score [16]: 0.0366 | interaction score [17]: 1.36 | interaction score [18]: -0.724 | interaction score [19]: 0.452 | interaction score [20]: 0.707 | interaction score [21]: -0.849 | interaction score [22]: -0.254 | interaction score [23]: 0.177 | interaction score [4]: -2.08 | interaction score [24]: 0.993 | interaction score [25]: 1.45 | interaction score [26]: 0.722 | interaction score [27]: 0.578 | interaction score [28]: -0.312 | interaction score [29]: -0.297 | interaction score [30]: 0.273 | interaction score [31]: -0.569 | interaction score [32]: 0.233 | interaction score [33]: 0.0226 | interaction score [34]: 1.23 | interaction score [35]: -0.785 | interaction score [36]: -0.28 | interaction score [37]: -0.194
Binder: DENQQLKQENQELEQKIQELKWKIQELKQ [4H1710-bN]
